Earlier results on two molecules are cited in patent US11739305B2, “Sialyltransferase variants having neosialidase activity” (The Regents of the University of California, priority 2017, dated 2023).

Read-outs that look alike come from different tables or passages of the source.

For data set [1] the following is noted: CMP-Neu5Ac hydrolysis, wild-type, reported previously (McArthur, Chen, et al. Org. Biomol. Chem. 2017).
The conditions of data set [2]: wild-type, reported previously (Cheng, Chen, et al. Glycobiology 2010).
For data set [3] the following is noted: reported previously using Neu5Acα2-6GalβpNP as the substrate (Li, Chen, et al. Mol. BioSyst. 2011).

B1: Pd2,6ST: Photobacterium damselae α2-6-sialyltransferase, wild-type enzyme (GenBank BAA25316.1, SEQ ID NO: 1) (protein, listed as Photobacterium damselae)
chain: MKKILTVLSIFILSACNSDNTSLKETVSSNSADVVETETYQLTPIDAPSSFLSHSWEQTCGTPILNESDKQAISFDFVAPELKQDEKYCFTFKGITGDHRYITNTTLTVVAPTLEVYIDHASLPSLQQLIHIIQAKDEYPSNQRFVSWKRVTVDADNANKLNIHTYPLKGNNTSPEMVAAIDEYAQSKNRLNIEFYTNTAHVFNNLPPIIQPLYNNEKVKISHISLYDDGSSEYVSLYQWKDTPNKIETLEGEVSLLANYLAGTSPDAPKGMGNRYNWHKLYDTDYYFLREDYLDVEANLHDLRDYLGSSAKQMPWDEFAKLSDSQQTLFLDIVGFDKEQLQQQYSQSPLPNFIFTGTTTWAGGETKEYYAQQQVNVINNAINETSPYYLGKDYDLFFKGHPAGGVINDIILGSFPDMINIPAKISFEVLMMTDMLPDTVAGIASSLYFTIPADKVNFIVFTSSDTITDREEALKSPLVQVMLTLGIVKEKDVLFWADHKVNSMEVAIDEACTRIIAKRQPTASDLRLVIAIIKTITDLERIGDVAESIAKVALESFSNKQYNLLVSLESLGQHTVRMLHEVLDAFARMDVKAAIEVYQEDDRIDQEYESIVRQLMAHMMEDPSSIPNVMKVMWAARSIERVGDRCQNICEYIIYFVKGKDVRHTKPDDFGTMLD
A word on the Km: it is the concentration of substrate that gives half-maximal velocity. Broadly, the kcat is the maximal rate divided by the concentration of active sites. For the molecule B1, in data set [1], the Km was 45 ± 14 mM and the kcat entry is “(4.0 ± 0.9) × 10^2 min^−1”. In addition, in data set [2], the Km was 7.6 ± 0.5 mM and the kcat was 0.137 ± 0.005 s⁻¹.

B2: hNEU2: human NEU2, an α2-3/6/8-sialidase (protein, UniProt Q9Y3R4 1-380, looked up)
Sialidase-2: MASLPVLQKESVFQSGAHAYRIPALLYLPGQQSLLAFAEQRASKKDEHAELIVLRRGDYDAPTHQVQWQAQEVVAQARLDGHRSMNPCPLYDAQTGTLFLFFIAIPGQVTEQQQLQTRANVTRLCQVTSTDHGRTWSSPRDLTDAAIGPAYREWSTFAVGPGHCLQLHDRARSLVVPAYAYRKLHPIQRPIPSAFCFLSHDHGRTWARGHFVAQDTLECQVAEVETGEQRVVTLNARSHLRARVQAQSTNDGLDFQESQLVKKLVEPPPQGCQGSVISFPSPRSGPGSPAQWLLYTHPTHSWQRADLGAYLNPRPPAPEAWSEPVLLAKGSCAYSDLQSMGTGPDGSPLFGCLYEANDYEEIVFLMFTLKQAFPAEYLPQ
In the case of B2, in data set [3], the Km was 2.1 ± 0.2 mM and the kcat was 0.18 ± 0.01 s⁻¹.
